Test results published in US20200369754A1 (Janssen / Centocor, published 2020).

T1: Tau peptide A6940 (human, biotin (bound via biotin to a streptavidin biosensor in the Octet assay; position of the biotin not stated))
T1 construct: Biotinylated in the Octet assay; also called cognate Tau peptide A6940
T1 peptide: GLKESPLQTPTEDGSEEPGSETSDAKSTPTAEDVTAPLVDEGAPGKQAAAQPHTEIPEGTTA


Legend:
[1] = biological target: T2, Aggregated recombinant 2N4R tau (rTau) (human, UniProt P10636 2-758, covalently labelled with pHrodo Green STP Ester); test: uptake of pHrodo-labelled rTau immunocomplexes by BV2 cells, flow cytometry
T2 construct: Full-length huTau441 expressed in E. coli, in aggregated form; also called rTau aggregates; tau aggregates
Protocol: In each experiment a mouse IgG1 isotype control was included together with cells incubate with only aggregated rTau.
Immunocomplexes were incubated over night at 4° C. and the day after applied to BV2 cells for 2 hours at 37° C. with 5% CO2. After incubation cells were harvested with 0.25% trypsin-EDTA for 20 min thus simultaneously removing Tau bound to the extracellular membrane, centrifuged at 400 rcf to remove medium removed, washed twice with PBS and resuspended in flow cytometry buffer (PBS 1× plus 0.5% BSA and 2 mM EDTA). Cells were analyzed with a Canto II flow cytometer (BD) gating for live single cell population, as identified by forward and side scatter profiles. Each experiment was conducted in duplicate.

Tau peptide A6940 = biological target: T1, Tau peptide A6940; test: ITC, tau peptide 20 uM titrated with IgG 200 uM, PBS pH 7.4, one set of sites model
Protocol: Affinities of the novel antibodies were determined using a Microcal Auto-iTC200 isothermal titration calorimeter (Malvern). […] Data was fitted according to a one set of sites model using Microcal PEAQ-ITC Analysis Software (Malvern).
The continuous lines represent the fit of the data to a “one set of binding sites” model.

T2 sequence (P10636 other isoform, or with tags, fused parts or gaps limits assumed): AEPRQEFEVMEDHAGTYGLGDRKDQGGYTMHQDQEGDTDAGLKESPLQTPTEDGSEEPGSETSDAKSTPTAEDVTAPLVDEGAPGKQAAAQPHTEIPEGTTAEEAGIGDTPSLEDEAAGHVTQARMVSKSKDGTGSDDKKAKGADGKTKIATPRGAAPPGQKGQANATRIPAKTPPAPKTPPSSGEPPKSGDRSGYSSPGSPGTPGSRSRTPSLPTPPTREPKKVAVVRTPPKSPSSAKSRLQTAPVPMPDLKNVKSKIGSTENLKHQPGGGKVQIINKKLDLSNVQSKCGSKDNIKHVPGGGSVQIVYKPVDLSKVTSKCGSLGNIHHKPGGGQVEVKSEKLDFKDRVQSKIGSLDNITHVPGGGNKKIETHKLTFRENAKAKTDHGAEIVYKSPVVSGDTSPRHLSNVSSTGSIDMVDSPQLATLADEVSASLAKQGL

Row | Binder | binding result [1] | Kd (Tau peptide A6940) [nM]
1 | CBTAU-28.1 (I50M[VH];Y52W[VH];S103W[VH];S32R[VL];E35K[VL]) (antibody, V domains shown) VH: QVQLQQSGAEVKKPGESLKISCEASGYSFTNYWIGWVRQMPGKGLEWMGMIWPGDSDTRYSPPFQGQVTITADRSITTAYLEWSSLKASDTAMYYCARVGRPWKGGWFDPWGQGTLVTVSS VL: DIQMTQSPDSLAVSLGERATINCESSQTLLYRSNKKNYLAWYQQKPGQPPKLLISWASTPESGVPDRFSGSGSGTSFTLTISSLQAEDVAVYYCQQYYNSPYTFGQGTRLEIK | binds | 67
2 | CBTAU-28.1 (S32R[VL];E35K[VL]) (antibody, V domains shown) VH: QVQLQQSGAEVKKPGESLKISCEASGYSFTNYWIGWVRQMPGKGLEWMGIIYPGDSDTRYSPPFQGQVTITADRSITTAYLEWSSLKASDTAMYYCARVGRPSKGGWFDPWGQGTLVTVSS VL: DIQMTQSPDSLAVSLGERATINCESSQTLLYRSNKKNYLAWYQQKPGQPPKLLISWASTPESGVPDRFSGSGSGTSFTLTISSLQAEDVAVYYCQQYYNSPYTFGQGTRLEIK | binds | 
3 | CBTAU-28.1 (I50M[VH];Y52W[VH];S103F[VH];S32R[VL];E35K[VL]) (antibody, V domains shown) VH: QVQLQQSGAEVKKPGESLKISCEASGYSFTNYWIGWVRQMPGKGLEWMGMIWPGDSDTRYSPPFQGQVTITADRSITTAYLEWSSLKASDTAMYYCARVGRPFKGGWFDPWGQGTLVTVSS VL: DIQMTQSPDSLAVSLGERATINCESSQTLLYRSNKKNYLAWYQQKPGQPPKLLISWASTPESGVPDRFSGSGSGTSFTLTISSLQAEDVAVYYCQQYYNSPYTFGQGTRLEIK | binds | 63

The remaining lines, values ahead:

Row | binding result [1] | Kd (Tau peptide A6940) [nM] | Binder
4 | binds | 57 | CBTAU-28.1 (I50M[VH];Y52W[VH];S103W[VH];Y31W[VL];N99H[VL]) (antibody, V domains shown) VH: QVQLQQSGAEVKKPGESLKISCEASGYSFTNYWIGWVRQMPGKGLEWMGMIWPGDSDTRYSPPFQGQVTITADRSITTAYLEWSSLKASDTAMYYCARVGRPWKGGWFDPWGQGTLVTVSS VL: DIQMTQSPDSLAVSLGERATINCESSQTLLWSSNEKNYLAWYQQKPGQPPKLLISWASTPESGVPDRFSGSGSGTSFTLTISSLQAEDVAVYYCQQYYHSPYTFGQGTRLEIK
5 | binds | 45 | CBTAU-28.1 (I50M[VH];Y52W[VH];S103F[VH];Y31W[VL];N99H[VL]) (antibody, V domains shown) VH: QVQLQQSGAEVKKPGESLKISCEASGYSFTNYWIGWVRQMPGKGLEWMGMIWPGDSDTRYSPPFQGQVTITADRSITTAYLEWSSLKASDTAMYYCARVGRPFKGGWFDPWGQGTLVTVSS VL: DIQMTQSPDSLAVSLGERATINCESSQTLLWSSNEKNYLAWYQQKPGQPPKLLISWASTPESGVPDRFSGSGSGTSFTLTISSLQAEDVAVYYCQQYYHSPYTFGQGTRLEIK
